Values of other authors in patent US20060084109.

Target: T1, Formamidopyrimidine glycosylase (Fpg, MutM) (Escherichia coli) (UniProt P05523)
T1 sequence: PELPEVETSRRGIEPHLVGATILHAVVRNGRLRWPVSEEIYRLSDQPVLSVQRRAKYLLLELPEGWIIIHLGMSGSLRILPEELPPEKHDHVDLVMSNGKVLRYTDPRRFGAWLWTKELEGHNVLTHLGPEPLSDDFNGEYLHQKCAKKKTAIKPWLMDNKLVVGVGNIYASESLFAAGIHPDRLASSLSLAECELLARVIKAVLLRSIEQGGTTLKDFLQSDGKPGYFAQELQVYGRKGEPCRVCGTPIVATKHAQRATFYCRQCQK
Test: cleavage_in_vitro
Conditions: 8-oxo-dG at position 10, cytidine opposite in complementary strand; CITED Vuyisich and Beal 2002; product from 20 nM substrate, 1 nM Fpg, 7 min, room temperature, no inhibitor

For “TCATGGGTCNTCGGTATA (double strand) [Fpg 18-mer 8-oxo-dG substrate duplex]”, the activity is listed as 2 nM.
